Laboratory results reported in paper PMC4434323.

Tests used:
[1] = target: T1, ceh-26 (K12H4.1) (Caenorhabditis elegans) (UniProt P34522)
T1 sequence: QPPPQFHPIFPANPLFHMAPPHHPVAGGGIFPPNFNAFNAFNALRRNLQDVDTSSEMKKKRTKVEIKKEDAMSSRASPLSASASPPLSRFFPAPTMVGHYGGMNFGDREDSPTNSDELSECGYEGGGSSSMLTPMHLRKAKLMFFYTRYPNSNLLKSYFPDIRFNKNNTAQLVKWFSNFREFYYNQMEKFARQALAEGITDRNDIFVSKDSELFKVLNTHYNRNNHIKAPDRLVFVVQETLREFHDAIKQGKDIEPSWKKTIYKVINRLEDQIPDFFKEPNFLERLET

[2] = target: T2, Y61A9LA.9 (Y61A9LA.9) (Caenorhabditis elegans) (UniProt Q9N312)
T2 sequence: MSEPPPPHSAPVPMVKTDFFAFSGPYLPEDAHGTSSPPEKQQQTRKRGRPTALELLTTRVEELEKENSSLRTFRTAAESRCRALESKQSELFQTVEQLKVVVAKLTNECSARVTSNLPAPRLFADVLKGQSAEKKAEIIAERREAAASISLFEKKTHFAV

[3] = target: T3, die-1 (C18D1.1) (Caenorhabditis elegans) (UniProt A0A131MCR4)
T3 sequence: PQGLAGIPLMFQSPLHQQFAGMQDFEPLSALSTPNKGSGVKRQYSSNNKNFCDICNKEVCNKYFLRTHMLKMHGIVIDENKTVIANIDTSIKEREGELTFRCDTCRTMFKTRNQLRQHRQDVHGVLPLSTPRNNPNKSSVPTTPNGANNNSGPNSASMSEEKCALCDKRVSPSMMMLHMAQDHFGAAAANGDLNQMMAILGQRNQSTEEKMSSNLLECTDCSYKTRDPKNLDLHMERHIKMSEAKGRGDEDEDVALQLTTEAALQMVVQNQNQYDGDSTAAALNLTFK

[4] = target: sptf-3 (Y40B1A.4) (Caenorhabditis elegans) (UniProt Q9XW26)
Sequence of sptf-3 (Y40B1A.4) (Caenorhabditis elegans) (Q9XW26 266-412): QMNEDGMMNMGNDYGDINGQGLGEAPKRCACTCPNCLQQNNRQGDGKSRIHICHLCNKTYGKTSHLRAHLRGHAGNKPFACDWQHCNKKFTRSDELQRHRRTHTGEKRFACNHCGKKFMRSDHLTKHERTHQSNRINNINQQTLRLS

[5] = target: T4, pax-2 (K06B9.5) (Caenorhabditis elegans) (UniProt Q21263)
T4 sequence: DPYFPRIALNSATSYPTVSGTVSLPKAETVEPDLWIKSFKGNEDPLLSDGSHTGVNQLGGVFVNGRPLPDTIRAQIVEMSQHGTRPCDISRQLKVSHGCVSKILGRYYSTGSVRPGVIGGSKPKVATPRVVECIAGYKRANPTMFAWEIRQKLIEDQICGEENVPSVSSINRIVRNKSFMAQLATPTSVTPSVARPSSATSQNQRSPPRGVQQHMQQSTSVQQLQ

[6] = target: T5, dmd-6 (F13G11.1) (Caenorhabditis elegans) (UniProt O62159)
T5 sequence: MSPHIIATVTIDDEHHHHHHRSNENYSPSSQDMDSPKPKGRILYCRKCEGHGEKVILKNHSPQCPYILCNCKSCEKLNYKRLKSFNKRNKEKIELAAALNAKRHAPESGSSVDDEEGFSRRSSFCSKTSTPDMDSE

[7] = tested on: T6, slr-2 (Y59A8B.13) (Caenorhabditis elegans)
T6 sequence: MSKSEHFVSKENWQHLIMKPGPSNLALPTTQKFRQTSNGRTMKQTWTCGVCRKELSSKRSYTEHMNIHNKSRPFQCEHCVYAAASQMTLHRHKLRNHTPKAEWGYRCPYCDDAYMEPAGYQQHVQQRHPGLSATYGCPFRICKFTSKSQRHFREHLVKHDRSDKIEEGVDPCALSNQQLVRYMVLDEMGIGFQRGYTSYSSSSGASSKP

[8] = target: T7, ceh-51 (Y80D3A.3) (Caenorhabditis elegans) (UniProt Q9U1R1)
T7 sequence: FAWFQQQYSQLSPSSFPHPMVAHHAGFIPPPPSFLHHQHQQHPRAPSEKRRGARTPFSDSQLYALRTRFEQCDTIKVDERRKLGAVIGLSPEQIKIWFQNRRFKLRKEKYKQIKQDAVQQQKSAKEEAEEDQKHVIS

[9] = target: egrh-1 (C27C12.2) (Caenorhabditis elegans) (UniProt Q18250)
Sequence of egrh-1 (C27C12.2) (Caenorhabditis elegans) (Q18250 324-461): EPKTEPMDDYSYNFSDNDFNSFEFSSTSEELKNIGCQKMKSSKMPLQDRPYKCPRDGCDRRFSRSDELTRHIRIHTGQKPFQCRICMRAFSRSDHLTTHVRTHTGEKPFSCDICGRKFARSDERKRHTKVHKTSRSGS

[10] = target: klf-3 (F54H5.4) (Caenorhabditis elegans) (UniProt Q65ZG6)
Sequence of klf-3 (F54H5.4) (Caenorhabditis elegans) (Q65ZG6 180-315): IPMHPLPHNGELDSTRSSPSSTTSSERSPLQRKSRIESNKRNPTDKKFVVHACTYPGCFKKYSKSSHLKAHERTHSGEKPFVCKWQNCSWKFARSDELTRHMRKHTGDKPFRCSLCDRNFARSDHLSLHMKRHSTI

[11] = target: T8, ZK337.2 (ZK337.2) (Caenorhabditis elegans) (UniProt O46016)
T8 sequence: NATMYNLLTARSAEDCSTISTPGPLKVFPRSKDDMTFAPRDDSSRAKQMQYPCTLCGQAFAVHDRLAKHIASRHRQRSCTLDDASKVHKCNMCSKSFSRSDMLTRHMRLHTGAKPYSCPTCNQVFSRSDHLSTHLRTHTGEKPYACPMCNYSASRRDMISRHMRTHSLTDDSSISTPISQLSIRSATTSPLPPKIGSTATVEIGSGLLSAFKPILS

[12] = target: T9, ceh-23 (ZK652.5) (Caenorhabditis elegans) (UniProt P34663)
T9 sequence: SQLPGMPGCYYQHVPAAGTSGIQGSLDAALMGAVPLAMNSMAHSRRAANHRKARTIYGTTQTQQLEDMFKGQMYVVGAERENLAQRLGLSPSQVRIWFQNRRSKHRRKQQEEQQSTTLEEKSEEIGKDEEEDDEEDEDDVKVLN

[13] = target: T10, eyg-1 (Y53C12C.1) (Caenorhabditis elegans) (UniProt O01996)
T10 sequence: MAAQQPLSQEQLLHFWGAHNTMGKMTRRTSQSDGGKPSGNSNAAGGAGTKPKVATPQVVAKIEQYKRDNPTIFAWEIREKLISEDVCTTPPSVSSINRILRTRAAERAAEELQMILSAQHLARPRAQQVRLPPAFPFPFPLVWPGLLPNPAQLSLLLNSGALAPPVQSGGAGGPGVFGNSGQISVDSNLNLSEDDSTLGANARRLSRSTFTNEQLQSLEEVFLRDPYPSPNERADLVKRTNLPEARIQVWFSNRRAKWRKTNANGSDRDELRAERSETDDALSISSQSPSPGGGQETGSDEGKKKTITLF

## CCAAGAAA (double strand) [8-mer CCAAGAAA]
[1]
  binding signal (PBM E-score (-0.5 to 0.5)): 0.472

## ATTTAAAT (double strand) [8-mer ATTTAAAT]
[2]
  binding signal (PBM E-score (-0.5 to 0.5)): 0.47
[3]
  binding signal (PBM E-score (-0.5 to 0.5)): 0.477

## CTCCGCCC (double strand) [8-mer CTCCGCCC]
[4]
  binding signal (PBM E-score (-0.5 to 0.5)): 0.451

## ATGGGCGG (double strand) [8-mer ATGGGCGG]
[4]
  binding signal (PBM E-score (-0.5 to 0.5)): 0.456

## ACCATGAC (double strand) [8-mer ACCATGAC]
[5]
  binding signal (PBM E-score (-0.5 to 0.5)): 0.454

## AGCGTGAC (double strand) [8-mer AGCGTGAC]
[5]
  binding signal (PBM E-score (-0.5 to 0.5)): 0.488

## AAGATCTT (double strand) [8-mer AAGATCTT]
[1]
  binding signal (PBM E-score (-0.5 to 0.5)): 0.457

## AAATATAT (double strand) [8-mer AAATATAT]
[2]
  binding signal (PBM E-score (-0.5 to 0.5)): 0.452
[6]
  binding signal (PBM E-score (-0.5 to 0.5)): 0.48

## GTCACGCA (double strand) [8-mer GTCACGCA]
[5]
  binding signal (PBM E-score (-0.5 to 0.5)): 0.481

## TCTTAAGA (double strand) [8-mer TCTTAAGA]
[1]
  binding signal (PBM E-score (-0.5 to 0.5)): 0.482

## AAGAAAGT (double strand) [8-mer AAGAAAGT]
[1]
  binding signal (PBM E-score (-0.5 to 0.5)): 0.456

## ACTGCAAA (double strand) [8-mer ACTGCAAA]
[7]
  binding signal (PBM E-score (-0.5 to 0.5)): 0.487

## ATATTAAT (double strand) [8-mer ATATTAAT]
[2]
  binding signal (PBM E-score (-0.5 to 0.5)): 0.453
[8]
  binding signal (PBM E-score (-0.5 to 0.5)): 0.467

## TCAAGAAA (double strand) [8-mer TCAAGAAA]
[1]
  binding signal (PBM E-score (-0.5 to 0.5)): 0.462

## AAATAATT (double strand) [8-mer AAATAATT]
[2]
  binding signal (PBM E-score (-0.5 to 0.5)): 0.457

## AACTGCAA (double strand) [8-mer AACTGCAA]
[7]
  binding signal (PBM E-score (-0.5 to 0.5)): 0.495

## CACGCCCC (double strand) [8-mer CACGCCCC]
[4]
  binding signal (PBM E-score (-0.5 to 0.5)): 0.473

## GTCACGGA (double strand) [8-mer GTCACGGA]
[5]
  binding signal (PBM E-score (-0.5 to 0.5)): 0.453

## TGAAGAAA (double strand) [8-mer TGAAGAAA]
[1]
  binding signal (PBM E-score (-0.5 to 0.5)): 0.453

## CCGTGACG (double strand) [8-mer CCGTGACG]
[5]
  binding signal (PBM E-score (-0.5 to 0.5)): 0.489

## CGTCTTGA (double strand) [8-mer CGTCTTGA]
[1]
  binding signal (PBM E-score (-0.5 to 0.5)): 0.454

## ACGCCCAC (double strand) [8-mer ACGCCCAC]
[4]
  binding signal (PBM E-score (-0.5 to 0.5)): 0.454
[9]
  binding signal (PBM E-score (-0.5 to 0.5)): 0.494
[10]
  binding signal (PBM E-score (-0.5 to 0.5)): 0.48
[11]
  binding signal (PBM E-score (-0.5 to 0.5)): 0.492

## AAACTGCA (double strand) [8-mer AAACTGCA]
[7]
  binding signal (PBM E-score (-0.5 to 0.5)): 0.475

## AATATATT (double strand) [8-mer AATATATT]
[2]
  binding signal (PBM E-score (-0.5 to 0.5)): 0.465

## AGACTGCA (double strand) [8-mer AGACTGCA]
[7]
  binding signal (PBM E-score (-0.5 to 0.5)): 0.469

## AATTAATT (double strand) [8-mer AATTAATT]
[12]
  binding signal (PBM E-score (-0.5 to 0.5)): 0.492
[2]
  binding signal (PBM E-score (-0.5 to 0.5)): 0.454
[13]
  binding signal (PBM E-score (-0.5 to 0.5)): 0.489

## CGTGACGA (double strand) [8-mer CGTGACGA]
[5]
  binding signal (PBM E-score (-0.5 to 0.5)): 0.461

## AACGTCTT (double strand) [8-mer AACGTCTT]
[1]
  binding signal (PBM E-score (-0.5 to 0.5)): 0.48
